These results are taken from patent US20220380409A1.

This assay concerns the target PfLDH protein (UniProt Q27743). The assay can be described thus: -.

On to primary ligand hevwh, for which the Kd is 5 µM.
